Here are results for three molecules from US20060045881A1 (University of Texas, published 2006).

Assay [1] has as its target T1, HLA-A2.1 (HLA-A*0201) on the surface of T2 cells (human).
T1 construct: also called surface HLA-A2.1 on T2

The target of assay [2] is T2, HLA-A2.1 heavy chain with I125-labeled beta2-microglobulin (heterotrimer complex assay) (human, I125-labeled).
T2 construct: Cell-free assay; also called heterotrimer complex of the HLA-A2.1 heavy chain, peptide, and beta2-microglobulin
Kind of assay: dissociation of I125-labeled beta2-microglobulin from heavy chain/peptide/beta2m complex, HPLC gel filtration. In general terms: SEC sorts molecules by how far they enter the pores of the column.

As for ILLDWLLEV (also called cyclin E2 peptide) [CCNE2 144-152 (cyclin E2 derived nonameric peptide)], in assay [1], the “FI CCNE2144-152/FI PR1 (fluorescence ratio against PR1)” value was 1.19 ratio.
As for RLFPDFFTRV [PR2 peptide (proteinase 3 derived, RLFPDFFTRV as printed in Table 4)], the “T1/2 (binding half-life)” value in assay [2] came to 2.33 h.
The same measure, in the same setting: next, VLQELNVTV (Synthetic peptide, minimum 95% purity) [PR1 peptide (proteinase 3 aa 169-177, VLQELNVTV)]: 24.3 h.
